Assay results: publication PMC4656997

Target: GST-CTD substrate (human)

Substance | KmCTD from in vitro kinase assay (32P-GST-CTD product) against varying concentrations of GST-CTD substrate | KmCTD from in vitro kinase assay (32P-GST-CTD product) against varying concentrations of GST-CTD substrate, 10 μM ATP, 15 min
CDK12^715–1052/CycK^11–267 complex (from UniProt Q9NYV4 715-1052; O75909 11-267) | 2 µM | 
full length CDK12/CycK1 complex (from UniProt Q9NYV4-1 1-1490; O75909 1-580) |  | 0.3 µM
